Experimental data published in the DeepSol protein solubility set.

Experiment: soluble on expression in E. coli; label from the status in PepcDB or PDB records

Sequence	soluble on expression in E. coli
MNEDLTNSTEYKRYGHDYAKYPRRIAEELQHYGGNSFANFFRDEGVLYKEILCDACDHLKVNYNEESATSLIEQNMLSKLLKDSLEKMSRREIKELCNELGMTNIDKVIGENKQVLIASTLTLFKAGGSHSYALAVSVADAMVRQTLGHVMWWVK	not soluble
MNELFLSELKSADKDLLQKLVLIEEHVFADSAQEPVQTEASLDSLELIISQCIAIISEIESPLEKAEALLNELYFQHLFIDRYQTRWPISAYSVAKGLNQRAMSPVVKAALVKEIITACGFETDLVFIPNKIMVRLCCDEQYAIIFDAITGESLDWTELDVRLDELDGDPGEQELKAIDDSVALVEHLSALKNVLIHEQAFDKALTCVDVILSLNPDDPLQRRDRGFLLHQLDCFKVAVDDYRYFVEQCPKDPAAKILKIQLEKIDVGNNVLHLEHHHHHH	soluble
MNEMPVQPTPAPPVDAPSPDGDRDLFGWRVRADLPLPELPVWAGDGRAPDILIRVAAVSPLDDGAQVFSPRIRFIEATLCFDVPDVARYRVDGGHLVTIEAARGIAADAPEIRLFFFGTVLAVLCFRRGLIPLHASAVALDGRALLLSGESGTGKSTLAAALLARGYPLLSDDLCALDVSCPDKPMILPCTAHLKLWGDAAARLGIATDGMTPVRRHLDKFRIPVRSASDAPLGPGTIIRLKRVTRAEQVGTRPLLGAEALCYDLIHRFRLGIALGYQSTMLTALAPLVRSAPIIQLNRRDDLGALPDLADHVIRLARDERRDLEHHHHHH	not soluble
MNESERKIVEEFQKETGINFKNEELLFRALCHSSYANEQNQAGRKDVESNEKLEFLGDAVLELFVCEILYKKYPEAEVGDLARVKSAAASEEVLAMVSRKMNLGKFLFLGKGEEKTGGRDRDSILADAFEALLAAIYLDQGYEKIKELFEQEFEFYIEKIMK	not soluble
MNESRITRNNEAVYKPEELDILRLGLDTDLYPNVDWMDMLLKDGAWSNRINLNMSGGGTTARYFVSASYVKEDGMYNTDESLKDDYNTNAAYHRWNYRLNTDIDITKTTLLKVGVAGFLSKRNSPGLGDGDVWGELFGYNPIKTPVMYSNGYIPAIGSGNKTNPWVAATQTGFNENWTNNIETNISLEQNFDFITKGLKFVGRFGYDSNNQNTIRRLKWPEQWLAERARDPETGELRWKKISGSQNMKQESSSSGNRREFLDMMLNWDRSFGAHHPSATIKYTQDSYIQTQNLGEDLKTGINKRNQDLAGRVAYNWNYRYFIDFNFGYNGSENFAKGDRFGFFPAFSLAWNIAEEPFIKKHLKWMNMFKVRFSYGKVGNDNVGTRFPYLYTIADRYKNGDNEIIYGGYDWAQYPSSYSFGGLGFADVASNGITWEVAEKNDLGIDLALFNDKFTATIDYFDEKRTGIYMVRNYLPQIVGLNGHNPAANVGAVSSKGFDGHFSYKQRINDVNLTVRGNITYSKNEVLERDEENNVYAYQMQRGYRVDQCKGLIAEGLFKDYDDIRNSPTQSWGKVQPGDIKYRDVNGDGVINDGDQVAIGATSRPNLIYGLGASASWKGLDVNVHFQGAGKSTFFTYGKCVWAFTEGEWGNIFKGMLDNRWVDADTAETLGIPANENPNASYPRLSYQGDNASNNNYRNSTFWLKNGRYLRLKTIDVGYTLPKSIVNKMHFNNIRIFLVGTNLLTWSSFKTWDPEMGDPRGESYPLTKSITMGISVNL	not soluble
MNFGAYGKITDVEFVSDSEGPLHFCIITFADSRSVDVLLTKSIYIRDVLMFTRRAVLKESVKIAEHKIKEQEQQNLVQLPPNHTAYLTPSRPVTSVHASSSASSNHYDPSAAAGYAPLYHQPPESDPLSQCGYGPRKW	not soluble
MNFLEASWEEREVTAYKAILGDTGLGIFPLSHELFKRMSASGINPRWLTHGVFKSPPNGNRSTWAYITSGMSNPWETNEPEEHSGLGVEFIIETEKEETWAVEVLQMLMAYNLLLAAGQMGDFPLLGDGDRVPLALSDAIRTMMFTQPVSFPHCFSLKSGRVDLLQVVGITPAELQVAKQTSSDKIRTQLISKLGSLVTSKERESVVLEHHHHHH	not soluble
MNGNRAQPMNMPNEPHPKLKLEQYLGIQIKRQRQAQELKLADVARIAGISQGMLSKIENAQVSTSLDNLSRLCDVLGMPMSKLFSQYDQQGSSALLVRADEGLEVVRRGTEKGHTYHLLNHTRGPKKSFEAYMVTMDDASEEFPTFSHPGTEFLHLLEGELIYRHGNQLYPMQAGDSLTFDGDIPHGPEQLVQVPIKLLSIMNYGAQGD	not soluble
MNGVEGNNELSLANTTTPSHASEDLDLKQDQGLQEETDTVREMEAAGEAGADGGASPDSEHCGPELCFRVAENSCAAAARGLEDAPSPSKGGDAPSAPVAADDSSKNGCQLEGPHSPAKPKALEACGAVGLGSQQMPGPKKTKEMTTTKCAISVATGKEGEAGAAMQEKKGLQKEKKVAGGGKEETRPRAPKINCMDSLEAIDQELSNVNAQADRAFLQLERKFGRMRRLHMQRRSFIIQNIPGFWVTAFRNHPQLSPMISGQDEDMMRYMINLEVEELKQPRVGCKFKFIFQSNPYFRNEGLVKEYERRSSGRVVSLSTPIRWHRGQEPQAHIHRNREGNTIPSFFNWFSDHSLLEFDRIAEIIKGELWSNPLQYYLMGDGPRRGVRVPPRQPVESPRSFRFQSG	soluble
MNHKVHHHHHHIDGRHHHHHHHIDGRHMQVSVETTQGLGRRVTITIAADSIETAVKSELVNVAKKVRIDGFRKGKVPMNIVAQRYGASVRQDVLGDLMSRNFIDAIIKEKINPAGAPTYVPGEYKLGEDFTYSVEFEVYPEVELQGLEAIEVEKPIVEVTDADVDGMLDTLRKQQATWKEKDGAVEAEDRVTIDFTGSVDGEEFEGGKASDFVLAMGQGRMIPGFEDGIKGHKAGEEFTIDVTFPEEYHAENLKGKAAKFAINLKKVEERELPELTAEFIKRFGVEDGSVEGLRAEVRKNMERELKSAIRNRVKSQAIEGLVKANDIDVPAALIDSEIDVLRRQAAQRFGGNEKQALELPRELFEEQAKRRVVVGLLLGEVIRTNELKADEERVKGLIEEMASAYEDPKEVIEFYSKNKELMDNMRNVALEEQAVEAVLAKAKVTEKETTFNELMNQQA	soluble
MNHSRTIPVVNIAGPGSQPEEEDFNFLPIPAGINLPLTPVLPEQALPAELRVARHILTTLIRDMDNPVATLPFPLSYKLNATEQQNSGLLDQLLGEGEISARVLLSDGKEQRIQETVFTGVWRVREYNADQQRVADEIIIGPIPESIWQTHPQPPITPELPPQPAGLMNGAFIAHEIAERVKQPVKEPHIINLTLLPVNDADREYLDHFLGEGCSAIFSRGYGKCRIVSTHFPGVWRVNYFNDMNTLLQDMIEIADIPDIAVAGIDDIEDAYAGLKNTLEWLKEYPVTENEPVVRMECKVCWWVYDPALGDDVWQIPPGVPFNQLPDYWCCPVCETSKSGFMVIDEGNSSCKD	not soluble
MNIDAVVEFTKKHLKDEKTGHDFYHGQRVANLASKMYLEDHPDAHADSRMVAIIKSGGYLHDTIDEKVCDNPDKVIAEIKELLPEVGFTDLEVWDILFTIQHMSFSANIEHHYHLPLSGQYVQDADRLESLGAMGIARAFTYGGKHGNKIYDPEIKPEKLVSHDQYRNHVETTINHFYEKLFHLADTMNTPAMKKEANRRTEYMHNFVQEFMNEWNVLEHHHHHH	soluble
MNIQLSPLEARVIGCLIEKEVTTPDHYPLTLNSLTTACNQKSNREPVLNLSEAEVQDTVEGLIARRLVSDESSFNSRTSKYQHRFCNTEFGDLKLNQQELGLICCLLLRGAQTPGELRTRTNRLCTFTDVKETEAVLERLANRDSGALVVKLPREPGKRESRYHHLFCGEVDMAA	soluble
MNIRNARPEDLMNMQHCNLLCLPENYQMKYYFYHGLSWPQLSYIAEDENGKIVGYVLAKMEEDPDDVPHGHITSLAVKRSHRRLGLAQKLMDQASRAMIENFNAKYVSLHVRKRSVKWSPNTMQMGRTPMP	not soluble
MNISLSRVHFPVTTLGPGQRLGLWFQGCSIRCAGCISADTWGPGKHPLPLAQVLDDLQPWLARAEGITLSGGEPFDQPEALLALLRGLRERTGVDILVYSGHSLETLQPLLQQAEGLLDALICDPFEQQQAQTLVLRGSDNQRLIFLTELGRQRLSTYQRPLHHEDRALDVMFDDDGSVWMAGIPRRDDVLRLRDLLHDQGHQLQISAHTSRRRLEHHHHHH	not soluble
MNKEEQVMMSLRELFNKMAWLNKLKMEDSLKGYKPSEVHYIECIGKNVDSNVTKLAKSLYMTRGAISKMTKKLIEKNIVESYQKADNKKEIYFRLTEKGHEIYKLHENLHKEFQERDKVVFEQVTDEQFESMLSFIEKYSKHLDSEIKKLGIDTKLE	not soluble
MNKENIIADAPSDVVKTVQQQVHLNQDEYKYLKQVEQILREGTRRDDRTGTGTISIFGMQSKYCLRNGTIPLLTTKRVYWKGVLEELLWFISGSTDGKLLMEKNVKIWEKNGDRAFLDNLGFTSREEGDLGPVYGFQWRHFGAKYVDCHTDYSGQGVDQLAEVIRQIKEQPDSRRIIMSAWNPSDLGQMVLPPCHTMCQFYVDNGELSCQLYQRSGDMGLGVPFNLASYGLLTHMIAKVCGLKPGTLVHTLGDAHVYSNHVDALKIQLDREPYAFPKIRFTRDVASIDDFTSDMIALDDYKCHPKIPMDMAV	soluble
MNKFKLGSDFDHLVNSLSDVELLNLFIQSCSQTTINGVPVPRFPPEEIQKQFVGASYEHALYEAYLFYRHIKEYAQNLGVPLNKESKVLDFGCGWGRIIRFLFKDASDQNLLGIDVDPAMITLCNETLGRGIYKTASPHPPVEFISDNSLDIIFAYSVFSHLSEATAENWVKEFSRVLRPGGIFIATTQARYFLDFCQQFQEHPELIQTGWHKTLSQAFPDIHRAISDYENGKFVHSPTGAGDVRNSSFYGETVIPRTYIENHYEKYLKLQDFFDDVNRLPQALFVLQKILEHHHHHH	not soluble
MNKGRVTQIMGPVVDVKFDGGKLPEIYNALTVKQSNENGTSINLTFEVALHLGDDTVRTVAMSSTDGLVRGTEVEDTGKAISVPVGDATLGRVFNVLGDAIDLDGEVPADVRRDPIHRQAPAFEELSTKVEILETGIKVVDLLAPYIKGGKIGLFGGAGVGKTVLIQELINNIAQEHGGISVFAGVGERTREGNDLYHEMSDSGVIKKTAMVFGQMNEPPGARQRVALTGLTMAEHFRDEQGQDVLLFIDNIFRFTQAGSEVSALLGRMPSAVGYQPTLATEMGQLQERITSTNKGSITSIQAVYVPADDYTDPAPATTFAHLDATTNLERRLTQMGIYPAVDPLASTSRALSPEIVGEEHYEVARQVQQTLQRYKELQDIIAILGMDELSEEDKLVVHRARRIQFFLSQNFHVAEQFTGQKGSYVPVKETVRGFKEILEGKYDDLPEDAFRLVGGIEEVIENAKKMMA	not soluble
MNKIYIKNMVCDRCIMVVTNILSQLELKVAHIALGEIVLLCPPTEKQMQELLDQLQKVGFEIIDDKRSRIVEQIKTCIRELVHRKNGMLKTNLSDYLCENIHLDYSYLSGLFSENEGRTIEKYFIYQKIERVKELLVYDDMQLSEIAYIMNYSSVAHLSNQFKKVTGFTPTYFKQMSTQCRKPLDKL	not soluble
MNKKVGESTLYEWLVSYQKLEQEIYYLDWELETYKKELERWCDPEDLGRYTLTKDSKASKLEDIIEDLEKRLAWKMNSIYDLRKLVYSFKGLDQKILVAKYIEGLSLKQIAGEFGHSYGYIRNKHNQILKKIEKSDNDVTIPIDKS	not soluble
MNKQRLITELQSKGLRLVDPNAKDLGRKGGAGPSDHRAVTVDGTTVMVPIYTSTAAASPYSINLASMPPKTVLSKGDEEIAAIALPRQPKFYDLKTADGIPYSHIALLHSNNVLATTVQQTCIRYRDESTVCQFCAIEKSLDAGRTITRKLPEQLAEVTEAAVRLDGIEQVIMTTGTPNSGDRGAAYLTKCAAAIKARVNIPIQAQCEPPDDFIWFERMKAAGVDSLGMHLEAVDPDVRAKIMPGKAEVPVSYYYEAYEAAVKVFGWGQVSTYLLAGLGDSFETLVEASEKLVNMGVYPFVVPFVPISETPLANHPAPDSDFMFALYQRVGTIIKQSQISSVDMKAGCAKCGACSALSTFAKLEHHHHHH	not soluble
